Results from paper PMC12603982 (Angewandte Chemie (International Ed. in English), 2025).
Positions of bridges follow the written chain, without caps; N, C: chain ends. Non-standard residues stand in square brackets, D forms with d. Groups on a side chain read outwards from the residue. Primed or numbered codes have the meaning given here. No end group written: not given here. εdLys = D-Lys linked through its epsilon amine (k^ε); PEG5′ = PEG5 spacer, as named in the construct; Cy3s = Cy3s fluorophore, as named; Cy5s = Cy5s fluorophore, as named; Orn = NCCC[C@H](N)C(=O)O; Mpa = O=C(O)CCS

Experiments:
Conditions in all cases: one partner purified
[1] = molecular target: T1, human oxytocin receptor (hOTR) (human, UniProt P30559 1-389); test: radioligand binding; displacement of [3H]-OT or [3H]-VP from membrane preparations of HEK293 cells stably expressing the human receptor; dose-response curves in duplicates, at least three independent experiments; Ki >10 µM assigned where <25% of the radioligand was displaced at 10 µM
T1 construct: oxytocin receptor, human; in membrane preparations or on cells; constructs are in the Supporting Information; source: HEK293, stably expressing; membrane preparations (radioligand assay); free-floating cells (FACS)
T1 sequence (looked up): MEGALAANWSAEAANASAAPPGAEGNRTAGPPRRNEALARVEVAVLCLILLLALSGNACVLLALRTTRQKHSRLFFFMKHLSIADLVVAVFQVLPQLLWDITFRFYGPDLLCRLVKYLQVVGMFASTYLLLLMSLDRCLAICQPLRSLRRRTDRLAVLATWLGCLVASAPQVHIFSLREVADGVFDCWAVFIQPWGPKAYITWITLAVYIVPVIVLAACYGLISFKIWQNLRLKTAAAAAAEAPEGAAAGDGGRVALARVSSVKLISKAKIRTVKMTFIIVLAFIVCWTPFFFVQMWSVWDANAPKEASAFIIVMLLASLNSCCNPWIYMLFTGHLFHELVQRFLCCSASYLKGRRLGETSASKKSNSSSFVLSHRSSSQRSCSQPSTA

[2] = molecular target: T2, human vasopressin V1a receptor (hV1aR) (human, UniProt P37288 1-418); test: as above
T2 construct: vasopressin V1a receptor, human; in membrane preparations; source: HEK293, stably expressing; membrane preparations
T2 sequence (P37288 whole entry): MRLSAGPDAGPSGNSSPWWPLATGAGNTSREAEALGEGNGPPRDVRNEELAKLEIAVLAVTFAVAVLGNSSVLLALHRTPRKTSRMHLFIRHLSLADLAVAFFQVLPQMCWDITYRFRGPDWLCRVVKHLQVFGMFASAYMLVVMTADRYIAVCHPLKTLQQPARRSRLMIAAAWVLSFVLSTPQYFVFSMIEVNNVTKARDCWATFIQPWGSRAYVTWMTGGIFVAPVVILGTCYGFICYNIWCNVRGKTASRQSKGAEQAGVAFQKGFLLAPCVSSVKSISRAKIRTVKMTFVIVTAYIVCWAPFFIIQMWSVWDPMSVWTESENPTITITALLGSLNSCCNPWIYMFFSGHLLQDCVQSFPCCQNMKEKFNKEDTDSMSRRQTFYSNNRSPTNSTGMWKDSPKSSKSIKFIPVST

[3] = molecular target: T3, human vasopressin V1b receptor (hV1bR) (human, UniProt P47901 1-424); test: as above
T3 construct: vasopressin V1b receptor, human; in membrane preparations; source: HEK293, stably expressing; membrane preparations
T3 sequence (looked up): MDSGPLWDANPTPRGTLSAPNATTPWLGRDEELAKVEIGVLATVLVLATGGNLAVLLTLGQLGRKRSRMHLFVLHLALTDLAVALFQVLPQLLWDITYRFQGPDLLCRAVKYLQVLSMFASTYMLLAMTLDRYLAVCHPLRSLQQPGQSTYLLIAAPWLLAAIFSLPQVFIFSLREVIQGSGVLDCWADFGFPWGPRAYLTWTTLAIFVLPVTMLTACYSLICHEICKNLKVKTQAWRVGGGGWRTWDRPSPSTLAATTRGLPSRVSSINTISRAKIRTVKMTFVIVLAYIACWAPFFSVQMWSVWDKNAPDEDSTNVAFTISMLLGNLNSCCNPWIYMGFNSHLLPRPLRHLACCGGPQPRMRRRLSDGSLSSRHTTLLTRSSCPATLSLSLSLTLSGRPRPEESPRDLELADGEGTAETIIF

[4] = molecular target: T4, murine vasopressin V1a receptor (mV1aR) (murine, UniProt Q62463 1-423); test: radioligand binding; displacement of [3H]-OT or [3H]-VP from membrane preparations of HEK293 cells transiently expressing the murine receptor; dose-response curves in duplicates, at least three independent experiments; Ki >10 µM assigned where <25% of the radioligand was displaced at 10 µM
T4 construct: vasopressin V1a receptor, murine; in membrane preparations; source: HEK293, transiently expressing; membrane preparations
T4 sequence (Q62463 whole entry): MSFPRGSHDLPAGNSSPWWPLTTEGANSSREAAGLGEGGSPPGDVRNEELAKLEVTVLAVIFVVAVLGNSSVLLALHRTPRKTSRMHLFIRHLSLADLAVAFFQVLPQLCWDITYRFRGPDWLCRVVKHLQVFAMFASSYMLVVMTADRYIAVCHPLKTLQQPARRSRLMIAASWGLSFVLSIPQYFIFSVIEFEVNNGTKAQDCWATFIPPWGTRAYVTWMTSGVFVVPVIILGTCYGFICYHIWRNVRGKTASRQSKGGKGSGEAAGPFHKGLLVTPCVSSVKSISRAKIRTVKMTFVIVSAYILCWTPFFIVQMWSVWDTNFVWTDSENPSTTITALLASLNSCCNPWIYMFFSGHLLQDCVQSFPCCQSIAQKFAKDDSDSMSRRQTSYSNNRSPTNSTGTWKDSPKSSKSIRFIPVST

[5] = molecular target: T5, murine vasopressin V1b receptor (mV1bR) (murine, UniProt Q9WU02 1-421); test: as above
T5 construct: vasopressin V1b receptor, murine; in membrane preparations; source: HEK293, transiently expressing; membrane preparations
T5 sequence (looked up): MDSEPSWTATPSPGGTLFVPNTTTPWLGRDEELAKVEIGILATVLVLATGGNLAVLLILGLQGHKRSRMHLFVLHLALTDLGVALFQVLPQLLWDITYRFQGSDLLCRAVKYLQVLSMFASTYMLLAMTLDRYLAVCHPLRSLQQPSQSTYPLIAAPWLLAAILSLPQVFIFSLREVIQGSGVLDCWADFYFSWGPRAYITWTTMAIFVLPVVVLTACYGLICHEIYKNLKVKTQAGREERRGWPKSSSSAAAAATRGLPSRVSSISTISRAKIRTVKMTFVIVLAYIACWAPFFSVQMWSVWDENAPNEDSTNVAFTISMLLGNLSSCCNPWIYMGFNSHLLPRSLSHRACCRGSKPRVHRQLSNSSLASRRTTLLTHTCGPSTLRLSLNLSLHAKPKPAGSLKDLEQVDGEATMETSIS

[6] = molecular target: T6, murine vasopressin V2 receptor (mV2R) (murine, UniProt O88721 1-371); test: as above
T6 construct: vasopressin V2 receptor, murine; in membrane preparations; source: HEK293, transiently expressing; membrane preparations
T6 sequence (O88721 whole entry): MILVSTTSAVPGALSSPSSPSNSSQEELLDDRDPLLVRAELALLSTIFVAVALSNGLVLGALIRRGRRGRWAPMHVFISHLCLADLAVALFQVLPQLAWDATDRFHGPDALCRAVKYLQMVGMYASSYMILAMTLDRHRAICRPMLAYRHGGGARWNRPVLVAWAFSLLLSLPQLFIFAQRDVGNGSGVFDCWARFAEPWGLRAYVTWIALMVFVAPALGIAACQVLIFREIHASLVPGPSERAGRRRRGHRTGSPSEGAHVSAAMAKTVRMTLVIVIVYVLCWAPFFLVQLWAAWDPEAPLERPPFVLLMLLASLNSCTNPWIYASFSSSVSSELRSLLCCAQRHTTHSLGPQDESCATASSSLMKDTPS

[7] = molecular target: T7, murine oxytocin receptor (mOTR) (murine, UniProt P97926 1-388); test: as above
T7 construct: oxytocin receptor, murine; in membrane preparations; source: HEK293, transiently expressing; membrane preparations
T7 sequence (looked up): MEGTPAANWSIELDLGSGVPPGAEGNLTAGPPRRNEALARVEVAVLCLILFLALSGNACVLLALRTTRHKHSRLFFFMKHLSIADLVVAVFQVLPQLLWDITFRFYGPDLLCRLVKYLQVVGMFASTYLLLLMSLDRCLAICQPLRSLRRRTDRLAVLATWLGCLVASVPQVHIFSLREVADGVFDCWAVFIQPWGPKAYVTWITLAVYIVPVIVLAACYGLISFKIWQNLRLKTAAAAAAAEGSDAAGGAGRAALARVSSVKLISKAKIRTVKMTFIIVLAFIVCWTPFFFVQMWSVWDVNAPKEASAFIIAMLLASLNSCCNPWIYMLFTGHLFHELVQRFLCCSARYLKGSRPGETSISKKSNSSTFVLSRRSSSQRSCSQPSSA

Binder: [Mpa]YIQNCP[Orn]([PEG5′-Cy3s])G (disulfide 1-6) [d(Orn)^8OT‐[PEG5‐Cy3s]^8]
- Ki [1]: 1.5 nM
- Ki [2]: 80 nM
- Ki [3]: 372 nM

Binder: [Mpa]YIQNCP[Orn]G (disulfide 1-6) [d(Orn)^8OT]
- Ki [1]: 0.7 nM
- Ki [2]: 0.4 nM
- Ki [3]: 0.8 nM

Binder: [Mpa]YIQNCP[Orn]([PEG5′-εdLys-Cy3s])G (disulfide 1-6) [d(Orn)^8OT‐[PEG5‐k^ε‐Cy3s]^8]
- Ki [1]: 1.4 nM
- Ki [2]: 21 nM
- Ki [3]: 242 nM

Binder: [Mpa]YIQNCP[Orn]([PEG5′-Cy5s])G (disulfide 1-6) [d(Orn)^8OT‐[PEG5‐Cy5s]^8]
- Ki [1]: 1.3 nM
- Ki [2]: 70 nM
- Ki [3]: 376 nM

Binder: [Mpa]YIQNCP[Orn]([PEG5′-εdLys-Cy5s])G (disulfide 1-6) [d(Orn)^8OT‐[PEG5‐k^ε‐Cy5s]^8]
- Ki [1]: 1.2 nM
- Ki [2]: 11 nM
- Ki [3]: 176 nM

Binder: [Mpa]YIQNCP[Orn]([dD-PEG5′-εdLys-TAMRA])G (disulfide 1-6) [d(Orn)^8OT‐[d‐PEG5‐k^ε‐TAMRA]^8]
- Ki [1]: 7.5 nM
- Ki [2]: 631 nM
- Ki [3]: 932 nM

Binder: [Mpa]YIQNCP[Orn]([εdLys-εdLys-Cy3s])G (disulfide 1-6) [d(Orn)^8OT‐[k^ε‐k^ε‐Cy3s]^8]
- Ki [1]: 0.8 nM
- Ki [2]: 3.3 nM
- Ki [3]: 10 nM

B1: Oxytocin (OT) (peptide)
peptide: CYIQNCPLG
notes: oxytocin, endogenous nonapeptide ligand of OTR; numbers count on: the mature nonapeptide
- Ki [4]: 1400 nM
- Ki [5]: 416 nM
- Ki [6]: 1570 nM

B2: Vasopressin (VP) (peptide)
peptide: CYFQNCPRG
notes: vasopressin (arginine at position 8), endogenous nonapeptide; numbers count on: the mature nonapeptide
- Ki [7]: 8.1 nM
- Ki [4]: 1 nM
- Ki [5]: 0.4 nM

Binder: [Mpa]YIQNCP[Orn]([dD-PEG5′-Cy5s])G (disulfide 1-6) [d(Orn)^8OT‐[d‐PEG5‐Cy5s]^8]
- Ki [1]: 6 nM
- Ki [2]: 553 nM
- Ki [3]: 1320 nM

Binder: [Mpa]YIQNCP[Orn]G (disulfide 1-6; not fully specified (residue 8)) [d(Orn)^8OT‐[d‐PEG5‐k^ε‐AF488]^8]
- Ki [1]: 22.6 nM
- Ki [2]: 1430 nM
- Ki [3]: 1800 nM

Binder: [Mpa]YIQNCP[Orn](Cy5s)G (disulfide 1-6) [d(Orn)^8OT‐[Cy5s]^8]
- Ki [1]: 0.9 nM
- Ki [2]: 23 nM
- Ki [3]: 86 nM

Binder: [Mpa]YIQNCP[Orn]([PEG5′-PEG5′-εdLys-Cy3s])G (disulfide 1-6) [d(Orn)^8OT‐[PEG5‐PEG5‐k^ε‐Cy3s]^8]
- Ki [1]: 1.5 nM
- Ki [2]: 22 nM
- Ki [3]: 199 nM

Binder: [Mpa]INYQCP[Orn]([dD-PEG5′-εdLys-Cy3s])G (disulfide 1-6 (inferred)) [scrambled cyclic tracer dCINYQCP(Orn)G‐[d‐PEG5‐k^ε‐Cy3s]^8]
- Ki [1]: > 10000 nM
- Ki [2]: > 10000 nM
- Ki [3]: > 10000 nM
- Ki [7]: > 10000 nM
- Ki [4]: > 10000 nM
- Ki [5]: > 10000 nM
- Ki [6]: > 10000 nM
